# Source: the supplement of paper PMC11908140
# B1: library; numbered along this chain (parent)
# chain: MRKPRAAVGSGHRKQAASQEGRQKHAKNNSQAKPSACDGLARQPEEVVLQASVSSYHLFRDVAEVTAFRGSLLSWYDQEKRDLPWRRRAEDEMDLDRRAYAVWVSEVMLQQTQVATVINYYTGWMQKWPTLQDLASASLEEVNQLWAGLGYYSRGRRLQEGARKVVEELGGHMPRTAETLQQLLPGVGRYTAGAIASIAFGQATGVVDGNVARVLCRVRAIGADPSSTLVSQQLWGLAQQLVDPARPGDFNQAAMELGATVCTPQRPLCSQCPVESLCRARQRVEQEQLLASGSLSGSPDVEECAPNTGQCHLCLPPSEPWDQTLGVVNFPRKASRKPPREESSATCVLEQPGALGAQILLVQRPNSGLLAGLWEFPSVTWEPSEQLQRKALLQELQRWAGPLPATHLRHLGEVVHTFSHIKLTYQVYGLALEGQTPVTTVPPGARWLTQEEFHTAAVSTAMKKVFRVYQGQQPGTCMGSKRSQVSSPCSRKKPRMGQQVLDNFFRSHISTDAHSLNSAAQ
# Variants of: B1
# Test: 8OG:A repair function score (normalized; synonymous = 0, nonsense = -1) (normalized log-likelihood score); higher = more repair activity (WT-like)
# Conditions: with 8OG:A DNA repair reporter (GFP) in HEK-293 MUTYH KO cells
# Description: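 Saturation mutagenesis (NNN codon scan) of the MUTYH cDNA (521-aa nuclear isoform NM_001048174.1 / NP_001041639), stably expressed under doxycycline induction in HEK-293 MUTYH knockout cells. Cells were co-transfected with an 8OG:A-bearing GFP repair reporter plus mCherry and sorted 72 h later into GFP+ and GFP− bins, three replicates per tile. The Rosace log2 enrichment (GFP+ vs GFP−) was converted per tile to a normalized function score with synonymous variants centered at 0 and nonsense variants (codons 1-471) at -1; low-abundance variants were removed.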
row,Variant,8OG:A repair function score
1,MRKPRAAVGSGHRKQAASQEGRQKHAKNNSQAKPSACDGLARQPEEVVLQASVSSYHLFRDVAEVTAFRGSLLSWYDQEKRDLPWRRRAEDEMDLDRRAYAVWVSEVMLQQTQVATVINYYTGWMQKWPTLQDLASASLEEVNQLWAGLGYYSRGRRLQEGARKVVEELGGHMPRTAETLQQLLPGVGRYTAGAIASIAFGQATGVVDGNVARVLCRVRAIGADPSSTLVSQQLWGLAQQLVDPARPGDFNQAAMELGATVCTPQRPLCSQCPVESLCRARQRVEQEQLLASGSLSGSPDVEECAPNTGQCHLCLPPSEPWDQTLGVVNFPRKASRKPPREESSATCVLEQPGALGAQILLVQRPNSGLLAGLWEFPSVTWEPSEQLQRKALLQELQRWAGPLPATHLRHLGEVVHTFSHIKLTYQVYGLALEGQTPVTTVPPGARWLTQEEFHTAAVSTAMKKVFRVYQGQQPGTCMGSKDSQVSSPCSRKKPRMGQQVLDNFFRSHISTDAHSLNSAAQ [R482D],-0.000963
2,MRKPRAAVGSGHRKQAASQEGRQKHAKNNSQAKPSACDGLARQPEEVVLQASVSSYHLFRDVAEVTAFRGSLLSWYDQEKRDLPWRRRAEDEMDLDRRAYAVWVSEVMLQQTQVATVINYYTGWMQKWPTLQDLASASLEEVNQLWAGLGYYSRGRRLQEGARKVVEELGGHMPRTAETLQQLLPGVGRYTAGAIASIAFGQATGVVDGNVARVLCRVRAIGADPSSTLVSQQLWGLAQQLVDPARPGDFNQAAMELGATVCTPQRPLCCQCPVESLCRARQRVEQEQLLASGSLSGSPDVEECAPNTGQCHLCLPPSEPWDQTLGVVNFPRKASRKPPREESSATCVLEQPGALGAQILLVQRPNSGLLAGLWEFPSVTWEPSEQLQRKALLQELQRWAGPLPATHLRHLGEVVHTFSHIKLTYQVYGLALEGQTPVTTVPPGARWLTQEEFHTAAVSTAMKKVFRVYQGQQPGTCMGSKRSQVSSPCSRKKPRMGQQVLDNFFRSHISTDAHSLNSAAQ [S270C],-0.0715
3,MRKPRAAVGSGHRKQAASQEGRQKHAKNNSQAKPSACDGLARQPEEVVLQASVSSYHLFRDVAEVTAFRGSLLSWYDQEKRDLPWRRRAEDEMDLDRRAYAVWVSEVMLQQTQVATVINYYTGWMQKWPTLQDLASASLEEVNQLWAGLGYYSRGRRLQEGARKVVEELGGHMPRTAETLQQLLPGVGRYTAGAIASIAFGQATGVVDGNVARVLCRVRAIGADPSSTLVSQQLWGLAQQLVDPARPGDFNYAAMELGATVCTPQRPLCSQCPVESLCRARQRVEQEQLLASGSLSGSPDVEECAPNTGQCHLCLPPSEPWDQTLGVVNFPRKASRKPPREESSATCVLEQPGALGAQILLVQRPNSGLLAGLWEFPSVTWEPSEQLQRKALLQELQRWAGPLPATHLRHLGEVVHTFSHIKLTYQVYGLALEGQTPVTTVPPGARWLTQEEFHTAAVSTAMKKVFRVYQGQQPGTCMGSKRSQVSSPCSRKKPRMGQQVLDNFFRSHISTDAHSLNSAAQ [Q252Y],-0.982
4,MRKPRAAVGSGHRKQAASQEGRQKHAKNNSQAKPSACDGLARQPEEVVLQASVSSYHLFRDVAEVTAFRGSLLSWYDQEKRDLPWRRRAEDEMDLDRRAYAVWVSEVMLQQTQVATVINYYTGWMQKWPTLQDLASASLEEVNQLWAGLGYYSRGRRLQEGARKVVEELGGHMPRTAETLQQLLPGVGRYTAGAIASIAFGQATGVVDGNVARVLCRVRAIGADPSSTLVSQQLWGLAQQLVDPARPGDFNQAAMELGATVCTPQRPLCSQCPVESLCRARQRVEQEQLLASGSLSGSPDVEECAPNTGQCHLCLPPSEPWDQTLGVVNFPRKASRKPPREESSATCVLEQPGALGAQILLVQRPNSGLLAGLWEFPSVTWEPSEQLQRKALLQELQRWAGPLPATHLRHLGEVVHTFSHIKLTYQVYGLAPEGQTPVTTVPPGARWLTQEEFHTAAVSTAMKKVFRVYQGQQPGTCMGSKRSQVSSPCSRKKPRMGQQVLDNFFRSHISTDAHSLNSAAQ [L432P],-0.514
5,MRKPRAAVGSGHRKQAASQEGRQKHAKNNSQAKPSACDGLARQPEEVVLQASVSSYHLFRDVAEVTAFRGSLLSWYDQEKRDLPWRRRAEDEMDLDRRAYAVWVSEVMLQQTQVATVINYYTGWMQKWPTLQDLASAFLEEVNQLWAGLGYYSRGRRLQEGARKVVEELGGHMPRTAETLQQLLPGVGRYTAGAIASIAFGQATGVVDGNVARVLCRVRAIGADPSSTLVSQQLWGLAQQLVDPARPGDFNQAAMELGATVCTPQRPLCSQCPVESLCRARQRVEQEQLLASGSLSGSPDVEECAPNTGQCHLCLPPSEPWDQTLGVVNFPRKASRKPPREESSATCVLEQPGALGAQILLVQRPNSGLLAGLWEFPSVTWEPSEQLQRKALLQELQRWAGPLPATHLRHLGEVVHTFSHIKLTYQVYGLALEGQTPVTTVPPGARWLTQEEFHTAAVSTAMKKVFRVYQGQQPGTCMGSKRSQVSSPCSRKKPRMGQQVLDNFFRSHISTDAHSLNSAAQ [S138F],-0.378
6,MRKPRAAVGSGHRKQAASQEGRQKHAKNNSQAKPSACDGLARQPEEVVLQASVSSYHLFRDVAEVTAFRGSLLSWYDQEKRDLPWRRRAEDEMDLDRRAYAVWVSEVMLQQTQVATVINYYTGWMQKWPTLQDLASASLEEVNQLWAGLGYYSRGRRLQEGARKVVEELGGHMPRTAETLQQLLPGVGRYTAGAIASIAFGQATGVVDGNVARVLCRVRAIGADPSSTLVSQQLWGLAQQLVDPARPGDFNQAAMELGATVCTPQRPLCSQCPVESLCRARQRVEQEQLLASGSLSGSPDVEECAPNTGQCHLCLPPSEPWDQTLGVTNFPRKASRKPPREESSATCVLEQPGALGAQILLVQRPNSGLLAGLWEFPSVTWEPSEQLQRKALLQELQRWAGPLPATHLRHLGEVVHTFSHIKLTYQVYGLALEGQTPVTTVPPGARWLTQEEFHTAAVSTAMKKVFRVYQGQQPGTCMGSKRSQVSSPCSRKKPRMGQQVLDNFFRSHISTDAHSLNSAAQ [V328T],-0.077
7,MRKPRAAVGSGHRKQAASQEGRQKHAKNNSQAKPSACDGLARQPEEVVLQASVSSYHLFRDVAEVTAFRGSLLSWYDQEKRDLPWRRRAEDEMDLDRRAYAVWVSEVMLQQTQVATVINYYTGWMQKWPTLQDLASASLEEVNQLWAGLGYYSRGRRLQEGARKVVEELGGHMPRTAETLQQLLPGVGRYTAGAIASIAFGQATGVVDGNVARVLCRVRAIGADPSSTLVSQQLWGLAQQLEDPARPGDFNQAAMELGATVCTPQRPLCSQCPVESLCRARQRVEQEQLLASGSLSGSPDVEECAPNTGQCHLCLPPSEPWDQTLGVVNFPRKASRKPPREESSATCVLEQPGALGAQILLVQRPNSGLLAGLWEFPSVTWEPSEQLQRKALLQELQRWAGPLPATHLRHLGEVVHTFSHIKLTYQVYGLALEGQTPVTTVPPGARWLTQEEFHTAAVSTAMKKVFRVYQGQQPGTCMGSKRSQVSSPCSRKKPRMGQQVLDNFFRSHISTDAHSLNSAAQ [V242E],-0.964
8,MRKPRAAVGSGHRKQAASQEGRQKHAKNNSQAKPSACDGLARQPEEVVLQASVSSYHLFRDVAEVTAFRGSLLSWYDQEKRDLPWRRRAEDEMDLDRRAYAVWVSEVMLQQTQVATVINYYTGWMQKWPTLQILASASLEEVNQLWAGLGYYSRGRRLQEGARKVVEELGGHMPRTAETLQQLLPGVGRYTAGAIASIAFGQATGVVDGNVARVLCRVRAIGADPSSTLVSQQLWGLAQQLVDPARPGDFNQAAMELGATVCTPQRPLCSQCPVESLCRARQRVEQEQLLASGSLSGSPDVEECAPNTGQCHLCLPPSEPWDQTLGVVNFPRKASRKPPREESSATCVLEQPGALGAQILLVQRPNSGLLAGLWEFPSVTWEPSEQLQRKALLQELQRWAGPLPATHLRHLGEVVHTFSHIKLTYQVYGLALEGQTPVTTVPPGARWLTQEEFHTAAVSTAMKKVFRVYQGQQPGTCMGSKRSQVSSPCSRKKPRMGQQVLDNFFRSHISTDAHSLNSAAQ [D133I],-0.308
9,MRKPRAAVGSGHRKQAASQEGRQKHAKNNSQAKPSACDGLARQPEEVVLQASVSSYHLFRDVAEVTAFRGSLLSWYDQEKRDLPWRRRAEDEMDLDRRAYAVWVSEVMLQQTQVATVINYYTGWMQKWPTLQDLASASLEEVNQLWAGLGYYSRGRRLQEGARKVVEELGGHMPRTAETLQQLLPGVGRYTAGAIASIAFGQATGVVDGNVARVLCRVRAIGADPSSTLVSQQLWGLAQQLVDPARPGDFNQAAMELGATVCTPQRPLCSQCPVESLCRARQRVEQEQLLASGSLSGSPDVEECAPNTGQCHLCLPPSEPWDQTLGVVNFPRKASRKPPREESSATCVLEQPGALGAQILLVQRPNSGLLAGLWEFPSVTWEPSEQLQRKALLQELQRWAGPLPATHLRHLGEVVHTFSHIKLTYQVYGLALEGQTPVTTVPPGARWLTQEEFHTAAVSTAMKKVFRVYQGQQPGTCMGSKRSQVSSPCSRKKPRMGQQVLDNFFRSHISTDAHSLNAAAQ [S518A],0.00286
10,MRKPRAAVGSGHRKQAASQEGRQKHAKNNSQAKPSACDGLARQPEEVVLQASVSSYHLFRDVAEVTAFRGSLLSWYDQEKRDLPWRRRAEDEMDLDRRAYAVWVSEVMLQQTQVATVINYYTGWMQKWPTLQDLASASLEEVNQLWAGLGYYSRGRRLQEGARKVVEELGGHMPRTAETLQQLLPGVGRYTAGAIASIAFGQATGVVDGNVARVLCRVRAIGADPSSTLVSQQLWGLAQQLVDPARPGDFNQAAMELGATVCTPQRPLCSQCPVESLCRARQRVEQEQLLASGSLSGSPDVEECAPNTGQCHLCLPPSEPWDQTLGVVNFPRKASRKPPREESSATCVLEQPGALGAQILLVQRPNSGLLAGLWEFPSVTWEPSEQLQRKALLQELQRWAGPLPATHLRHLGEVVHTFSHIKLTYQVYGLALEGQTPVTTVPPGARWLTQEEFHTAAVSTAMKKVFRVYQGQQPGTCMGSKRSQVSSPCSRKKPRMGQQVLDNFFRSHISTDAHLLNSAAQ [S515L],-0.00831
11,MRKPRAAVGSGHRKQAASQEGRQKHAKNNSQAKPSACDGLARQPEEVVLQASVSSYHLFRDVAEVTAFRGSLLSWYDQEKRDLPWRRRAEDEMDLDRRAYAVWVSEVMLQQTQVATVINYYTGWMQKWPTLQDLASASLEEVNQLWAGLGYYSRGRRLQEGARKVVEELGGHMPRTAETLQQLLPGVGRYTAGAIASIAFGQATGVVDGNVARVLCRVRAIGADPSSTLVSQQLWGLAQQLVDPARPGDFNQAAMELGATVCTPQRPLCSQCPVESLCRARQRVEQEQLLASGSLSGSPDVEECAPNTGQCHLCLPPSEPWDQTLGVVNFPRKASRKPPREESSATCVLEQPGALGAQILLVQRPNSGLLAGLWEFPSVTWEPSEQLQRKALLQELQRWAGPLPATHLRHLGEVVHTFSHIKLRYQVYGLALEGQTPVTTVPPGARWLTQEEFHTAAVSTAMKKVFRVYQGQQPGTCMGSKRSQVSSPCSRKKPRMGQQVLDNFFRSHISTDAHSLNSAAQ [T424R],-0.0759
12,MRKPRAAVGSGHRKQAASQEGRQKHAKNNSQAKPSACDGLARQPEEVVLQASVSSYHLFRDVAEVTAFRGSLLSWYDQEKRDLPWRRRAEDEMDLDRRAYAVWVSEVMLQQTQVATVINYYTGWMQKWPTLQDLASASLEEVNQLWAGLGYYSRGRRLQEGARKVVEELGGHMPRTAETLQQLLPGVGRYTAGAIASIAFGQATGVVDGNVARVLCRVRAIGADPSSTLVSQQLWGLAQQLVDPARPGDFNQAAMELGATVCTPQRPLCSVCPVESLCRARQRVEQEQLLASGSLSGSPDVEECAPNTGQCHLCLPPSEPWDQTLGVVNFPRKASRKPPREESSATCVLEQPGALGAQILLVQRPNSGLLAGLWEFPSVTWEPSEQLQRKALLQELQRWAGPLPATHLRHLGEVVHTFSHIKLTYQVYGLALEGQTPVTTVPPGARWLTQEEFHTAAVSTAMKKVFRVYQGQQPGTCMGSKRSQVSSPCSRKKPRMGQQVLDNFFRSHISTDAHSLNSAAQ [Q271V],0.0124
